In publication PMC5743061:
One block for each molecule: values may come before it.

Tests used:
[1] = target: CHC22 clathrin heavy chain (human (endogenous in HeLa)) (UniProt P53675)
[2] = target: CHC17 clathrin heavy chain (human (endogenous in HeLa)) (UniProt Q00610)
[3] = target: CHC22Δx9 (human) (UniProt P53675); assay: deep-etch electron microscopy; purified CHC isoforms adsorbed on mica flakes, quick-frozen, freeze-fractured, deep-etched, platinum-replicated; CHC22Δx9 released in high Tris buffer pH 7.0, CHC17 released in HEPES buffer pH 7.0
[4] = target: T1, CHC17 clathrin heavy chain (human (endogenous in HeLa)), Q00610; assay: as above; details: remark: other sources report otherwise
T1 chain: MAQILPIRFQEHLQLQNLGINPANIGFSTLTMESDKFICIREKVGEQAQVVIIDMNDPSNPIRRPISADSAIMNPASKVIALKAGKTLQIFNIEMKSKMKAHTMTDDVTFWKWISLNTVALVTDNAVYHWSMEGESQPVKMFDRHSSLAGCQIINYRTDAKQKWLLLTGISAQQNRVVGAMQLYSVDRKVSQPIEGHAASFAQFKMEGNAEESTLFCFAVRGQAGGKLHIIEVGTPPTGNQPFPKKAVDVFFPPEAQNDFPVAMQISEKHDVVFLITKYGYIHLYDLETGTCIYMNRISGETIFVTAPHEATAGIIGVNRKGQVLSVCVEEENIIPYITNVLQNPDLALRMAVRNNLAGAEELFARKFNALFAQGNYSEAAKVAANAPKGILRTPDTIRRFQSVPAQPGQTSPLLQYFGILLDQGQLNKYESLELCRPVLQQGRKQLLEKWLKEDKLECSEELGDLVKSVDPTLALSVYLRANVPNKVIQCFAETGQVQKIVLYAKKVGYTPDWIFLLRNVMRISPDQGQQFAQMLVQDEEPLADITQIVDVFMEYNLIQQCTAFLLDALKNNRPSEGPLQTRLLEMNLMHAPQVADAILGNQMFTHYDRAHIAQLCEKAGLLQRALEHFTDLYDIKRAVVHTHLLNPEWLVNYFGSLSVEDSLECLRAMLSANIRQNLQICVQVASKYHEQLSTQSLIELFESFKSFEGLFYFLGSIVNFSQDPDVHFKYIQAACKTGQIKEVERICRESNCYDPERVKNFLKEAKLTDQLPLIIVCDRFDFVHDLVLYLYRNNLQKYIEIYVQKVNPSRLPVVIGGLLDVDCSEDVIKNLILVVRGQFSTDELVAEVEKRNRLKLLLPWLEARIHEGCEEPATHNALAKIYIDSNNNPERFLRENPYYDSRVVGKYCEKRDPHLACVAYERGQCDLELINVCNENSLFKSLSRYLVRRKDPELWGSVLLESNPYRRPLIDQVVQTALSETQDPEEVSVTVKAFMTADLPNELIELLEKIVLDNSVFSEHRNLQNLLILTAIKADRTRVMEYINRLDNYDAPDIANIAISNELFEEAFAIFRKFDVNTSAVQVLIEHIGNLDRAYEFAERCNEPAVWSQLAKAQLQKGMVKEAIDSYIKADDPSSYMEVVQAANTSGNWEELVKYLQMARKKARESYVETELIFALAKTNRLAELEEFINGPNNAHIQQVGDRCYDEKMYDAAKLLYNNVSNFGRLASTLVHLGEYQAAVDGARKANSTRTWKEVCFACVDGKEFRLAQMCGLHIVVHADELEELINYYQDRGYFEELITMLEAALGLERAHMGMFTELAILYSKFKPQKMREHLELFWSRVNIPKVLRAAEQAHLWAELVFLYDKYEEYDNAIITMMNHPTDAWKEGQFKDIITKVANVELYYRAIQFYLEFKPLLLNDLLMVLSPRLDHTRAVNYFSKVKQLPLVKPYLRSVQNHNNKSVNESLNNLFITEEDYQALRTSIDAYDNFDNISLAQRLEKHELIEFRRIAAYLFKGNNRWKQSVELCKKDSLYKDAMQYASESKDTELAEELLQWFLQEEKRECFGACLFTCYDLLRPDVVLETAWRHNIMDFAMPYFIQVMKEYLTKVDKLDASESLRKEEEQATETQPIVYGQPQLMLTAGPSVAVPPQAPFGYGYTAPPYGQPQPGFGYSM

UniProt P53675, sequence (P53675 whole entry, canonical isoform): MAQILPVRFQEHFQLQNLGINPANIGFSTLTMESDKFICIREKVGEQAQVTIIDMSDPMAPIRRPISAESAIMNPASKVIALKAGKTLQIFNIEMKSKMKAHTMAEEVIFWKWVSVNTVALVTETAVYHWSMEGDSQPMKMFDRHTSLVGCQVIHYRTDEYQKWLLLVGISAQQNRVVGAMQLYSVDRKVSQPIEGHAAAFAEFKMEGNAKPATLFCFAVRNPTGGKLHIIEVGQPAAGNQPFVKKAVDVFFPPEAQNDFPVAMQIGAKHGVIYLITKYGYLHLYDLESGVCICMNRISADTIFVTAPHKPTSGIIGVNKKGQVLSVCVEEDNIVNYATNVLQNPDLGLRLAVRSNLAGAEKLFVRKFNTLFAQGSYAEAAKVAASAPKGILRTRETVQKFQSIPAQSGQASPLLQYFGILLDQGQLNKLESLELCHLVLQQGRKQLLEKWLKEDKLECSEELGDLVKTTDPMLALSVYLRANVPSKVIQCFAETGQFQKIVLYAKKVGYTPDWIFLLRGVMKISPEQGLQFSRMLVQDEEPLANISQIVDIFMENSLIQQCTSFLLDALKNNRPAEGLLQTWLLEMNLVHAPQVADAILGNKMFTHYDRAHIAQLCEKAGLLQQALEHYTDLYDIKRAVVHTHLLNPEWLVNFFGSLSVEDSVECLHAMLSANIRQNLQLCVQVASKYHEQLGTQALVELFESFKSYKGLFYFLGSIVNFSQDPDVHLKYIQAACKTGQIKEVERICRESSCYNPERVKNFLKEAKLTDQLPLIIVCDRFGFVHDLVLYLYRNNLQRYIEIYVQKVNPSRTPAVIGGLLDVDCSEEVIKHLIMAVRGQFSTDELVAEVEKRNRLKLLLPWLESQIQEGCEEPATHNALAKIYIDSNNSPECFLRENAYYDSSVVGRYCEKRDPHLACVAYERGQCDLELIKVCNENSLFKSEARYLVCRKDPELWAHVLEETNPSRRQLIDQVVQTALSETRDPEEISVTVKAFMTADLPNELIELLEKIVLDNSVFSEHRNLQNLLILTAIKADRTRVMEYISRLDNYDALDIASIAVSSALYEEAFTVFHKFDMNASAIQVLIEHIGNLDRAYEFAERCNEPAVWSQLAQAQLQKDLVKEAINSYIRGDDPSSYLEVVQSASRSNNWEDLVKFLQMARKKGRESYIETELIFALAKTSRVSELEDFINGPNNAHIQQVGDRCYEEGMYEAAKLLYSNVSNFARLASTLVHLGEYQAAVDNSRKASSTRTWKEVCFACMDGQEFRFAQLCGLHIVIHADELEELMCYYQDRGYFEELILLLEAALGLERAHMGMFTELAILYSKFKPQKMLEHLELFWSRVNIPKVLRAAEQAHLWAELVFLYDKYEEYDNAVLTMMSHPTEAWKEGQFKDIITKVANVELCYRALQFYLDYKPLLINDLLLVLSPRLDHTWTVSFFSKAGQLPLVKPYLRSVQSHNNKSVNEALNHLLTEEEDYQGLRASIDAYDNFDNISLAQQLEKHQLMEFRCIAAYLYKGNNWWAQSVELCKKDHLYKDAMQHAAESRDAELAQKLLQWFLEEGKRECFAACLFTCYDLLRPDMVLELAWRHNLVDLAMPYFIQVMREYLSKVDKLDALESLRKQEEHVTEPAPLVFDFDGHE

- release of CHC from HeLa CCVs into the supernatant, S/(S+P) by immunoblot, with uncoating complex (Hsc70 1.3 μM + GST-auxilin(401–910) 0.13 μM) plus ATP 0.5 mM, 10 min, 37 °C [1]: 16%
- release of CHC from HeLa CCVs into the supernatant, S/(S+P) by immunoblot, with uncoating complex (Hsc70 1.3 μM + GST-auxilin(401–910) 0.13 μM) plus ATP 0.5 mM, 10 min, 37 °C [2]: > 50%
Molecule: 70-kDa heat-shock cognate protein (Hsc70) (from UniProt P63018 1-646) (enzyme)

- stoichiometry N [3]: 3
Molecule: CHC22Δx9 (from UniProt P53675 1-1640) (natural protein)

- stoichiometry N [4]: 3
B1: CHC17 clathrin heavy chain, Q00610 1-1675 (natural protein)
chain: MAQILPIRFQEHLQLQNLGINPANIGFSTLTMESDKFICIREKVGEQAQVVIIDMNDPSNPIRRPISADSAIMNPASKVIALKAGKTLQIFNIEMKSKMKAHTMTDDVTFWKWISLNTVALVTDNAVYHWSMEGESQPVKMFDRHSSLAGCQIINYRTDAKQKWLLLTGISAQQNRVVGAMQLYSVDRKVSQPIEGHAASFAQFKMEGNAEESTLFCFAVRGQAGGKLHIIEVGTPPTGNQPFPKKAVDVFFPPEAQNDFPVAMQISEKHDVVFLITKYGYIHLYDLETGTCIYMNRISGETIFVTAPHEATAGIIGVNRKGQVLSVCVEEENIIPYITNVLQNPDLALRMAVRNNLAGAEELFARKFNALFAQGNYSEAAKVAANAPKGILRTPDTIRRFQSVPAQPGQTSPLLQYFGILLDQGQLNKYESLELCRPVLQQGRKQLLEKWLKEDKLECSEELGDLVKSVDPTLALSVYLRANVPNKVIQCFAETGQVQKIVLYAKKVGYTPDWIFLLRNVMRISPDQGQQFAQMLVQDEEPLADITQIVDVFMEYNLIQQCTAFLLDALKNNRPSEGPLQTRLLEMNLMHAPQVADAILGNQMFTHYDRAHIAQLCEKAGLLQRALEHFTDLYDIKRAVVHTHLLNPEWLVNYFGSLSVEDSLECLRAMLSANIRQNLQICVQVASKYHEQLSTQSLIELFESFKSFEGLFYFLGSIVNFSQDPDVHFKYIQAACKTGQIKEVERICRESNCYDPERVKNFLKEAKLTDQLPLIIVCDRFDFVHDLVLYLYRNNLQKYIEIYVQKVNPSRLPVVIGGLLDVDCSEDVIKNLILVVRGQFSTDELVAEVEKRNRLKLLLPWLEARIHEGCEEPATHNALAKIYIDSNNNPERFLRENPYYDSRVVGKYCEKRDPHLACVAYERGQCDLELINVCNENSLFKSLSRYLVRRKDPELWGSVLLESNPYRRPLIDQVVQTALSETQDPEEVSVTVKAFMTADLPNELIELLEKIVLDNSVFSEHRNLQNLLILTAIKADRTRVMEYINRLDNYDAPDIANIAISNELFEEAFAIFRKFDVNTSAVQVLIEHIGNLDRAYEFAERCNEPAVWSQLAKAQLQKGMVKEAIDSYIKADDPSSYMEVVQAANTSGNWEELVKYLQMARKKARESYVETELIFALAKTNRLAELEEFINGPNNAHIQQVGDRCYDEKMYDAAKLLYNNVSNFGRLASTLVHLGEYQAAVDGARKANSTRTWKEVCFACVDGKEFRLAQMCGLHIVVHADELEELINYYQDRGYFEELITMLEAALGLERAHMGMFTELAILYSKFKPQKMREHLELFWSRVNIPKVLRAAEQAHLWAELVFLYDKYEEYDNAIITMMNHPTDAWKEGQFKDIITKVANVELYYRAIQFYLEFKPLLLNDLLMVLSPRLDHTRAVNYFSKVKQLPLVKPYLRSVQNHNNKSVNESLNNLFITEEDYQALRTSIDAYDNFDNISLAQRLEKHELIEFRRIAAYLFKGNNRWKQSVELCKKDSLYKDAMQYASESKDTELAEELLQWFLQEEKRECFGACLFTCYDLLRPDVVLETAWRHNIMDFAMPYFIQVMKEYLTKVDKLDASESLRKEEEQATETQPIVYGQPQLMLTAGPSVAVPPQAPFGYGYTAPPYGQPQPGFGYSM
